Test results from US20240366775A1, “HUMAN TRANSFERRIN RECEPTOR BINDING ANTIBODY-PEPTIDE CONJUGATE” (PEPTIDREAM INC., priority 2021, published 2024).

Biological target: human transferrin receptor (hTfR) (human), P02786
Assay: SPR of naked peptide on hTfR; B = KD between 1 nM and 100 nM

Sequence of human transferrin receptor (hTfR) (human), P02786 (P02786 89-760 limits assumed): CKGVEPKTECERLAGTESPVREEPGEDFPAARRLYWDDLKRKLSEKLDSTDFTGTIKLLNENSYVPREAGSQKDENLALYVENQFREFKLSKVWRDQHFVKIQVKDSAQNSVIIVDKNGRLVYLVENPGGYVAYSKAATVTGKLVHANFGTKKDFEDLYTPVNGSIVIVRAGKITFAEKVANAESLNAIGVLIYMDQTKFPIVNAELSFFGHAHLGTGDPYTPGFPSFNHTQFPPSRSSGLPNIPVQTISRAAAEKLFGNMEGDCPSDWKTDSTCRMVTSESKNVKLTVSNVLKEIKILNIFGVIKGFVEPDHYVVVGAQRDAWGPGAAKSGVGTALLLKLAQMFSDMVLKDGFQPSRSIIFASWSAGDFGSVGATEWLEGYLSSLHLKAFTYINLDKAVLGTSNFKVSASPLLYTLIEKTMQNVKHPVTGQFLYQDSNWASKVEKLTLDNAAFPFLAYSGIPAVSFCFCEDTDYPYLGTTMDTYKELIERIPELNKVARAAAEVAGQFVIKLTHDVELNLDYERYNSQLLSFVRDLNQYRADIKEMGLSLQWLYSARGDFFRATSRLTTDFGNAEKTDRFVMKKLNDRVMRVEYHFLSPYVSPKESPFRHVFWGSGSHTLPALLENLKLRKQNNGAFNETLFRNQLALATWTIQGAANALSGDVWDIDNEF

KD: 1 to 100 nM
Binder: AVFVWNYYIISC (modifications not checked) [naked peptide (1st to 12th amino acids) of SEQ ID NO: 14, peptide 36]
